The values below come from paper PMC9569552 (International Journal of Molecular Sciences, 2022).

In this assay the target is T1, antigen c-MET (Homo sapiens (assumed), UniProt P08581).
T1 construct: c-MET used as antigen in the ForteBio Octet experiment; the construct of the antigen is unknown; also called mesenchymal-epithelial transition protein
Nature of the assay: BLI; ForteBio Octet; who was immobilised and the conditions not given; KD from ForteBio Data Analysis Software 8.0; values compared 'if normalized to the same number of epitope of c-MET'. Background: Biolayer interferometry detects binding as a change in optical thickness at a sensor tip.

T1 sequence (P08581 25-1390): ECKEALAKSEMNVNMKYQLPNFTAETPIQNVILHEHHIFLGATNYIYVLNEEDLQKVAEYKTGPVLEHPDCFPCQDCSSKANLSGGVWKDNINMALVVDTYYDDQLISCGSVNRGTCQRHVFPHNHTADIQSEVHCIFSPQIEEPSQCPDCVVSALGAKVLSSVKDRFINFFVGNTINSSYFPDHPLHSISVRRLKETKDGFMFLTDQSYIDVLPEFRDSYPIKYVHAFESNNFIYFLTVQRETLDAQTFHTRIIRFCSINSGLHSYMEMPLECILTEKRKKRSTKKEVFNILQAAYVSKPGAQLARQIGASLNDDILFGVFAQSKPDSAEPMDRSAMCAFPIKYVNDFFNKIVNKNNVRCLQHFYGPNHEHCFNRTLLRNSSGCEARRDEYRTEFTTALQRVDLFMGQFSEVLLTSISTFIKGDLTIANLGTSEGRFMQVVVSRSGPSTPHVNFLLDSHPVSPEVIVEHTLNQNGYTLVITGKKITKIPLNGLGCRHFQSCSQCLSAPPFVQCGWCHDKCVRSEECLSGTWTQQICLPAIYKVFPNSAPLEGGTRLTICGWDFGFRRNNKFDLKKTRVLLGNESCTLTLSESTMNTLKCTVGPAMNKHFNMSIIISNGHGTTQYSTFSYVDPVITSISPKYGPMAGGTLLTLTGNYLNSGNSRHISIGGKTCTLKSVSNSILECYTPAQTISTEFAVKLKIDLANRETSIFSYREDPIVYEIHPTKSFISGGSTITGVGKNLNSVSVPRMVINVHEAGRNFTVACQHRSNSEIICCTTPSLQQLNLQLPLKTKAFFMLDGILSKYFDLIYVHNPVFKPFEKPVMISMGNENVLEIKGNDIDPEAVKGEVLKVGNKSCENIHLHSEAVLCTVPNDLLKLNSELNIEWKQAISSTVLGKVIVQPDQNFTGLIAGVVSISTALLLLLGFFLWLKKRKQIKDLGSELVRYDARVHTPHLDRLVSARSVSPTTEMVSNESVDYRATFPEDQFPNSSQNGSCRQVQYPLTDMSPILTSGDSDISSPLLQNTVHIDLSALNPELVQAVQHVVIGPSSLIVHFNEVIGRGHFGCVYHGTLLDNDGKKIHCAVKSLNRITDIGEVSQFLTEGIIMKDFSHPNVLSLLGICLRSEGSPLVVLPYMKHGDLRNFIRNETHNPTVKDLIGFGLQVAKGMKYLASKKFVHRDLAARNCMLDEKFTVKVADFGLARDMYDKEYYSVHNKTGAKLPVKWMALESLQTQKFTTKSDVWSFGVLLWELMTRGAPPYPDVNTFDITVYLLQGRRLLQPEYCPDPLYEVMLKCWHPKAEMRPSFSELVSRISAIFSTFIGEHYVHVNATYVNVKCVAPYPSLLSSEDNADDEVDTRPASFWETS

B1: Emibetuzumab-IgG4 (Emi-IgG4) antibody (antibody, V domains shown)
VH: QVQLVQSGAEVKKPGASVKVSCKASGYTFTDYYMHWVRQAPGQGLEWMGRVNPNRRGTTYNQKFEGRVTMTTDTSTSTAYMELRSLRSDDTAVYYCARANWLDYWGQGTTVTVSS
VL: DIQMTQSPSSLSASVGDRVTITCSVSSSVSSIYLHWYQQKPGKAPKLLIYSTSNLASGVPSRFSGSGSGTDFTLTISSLQPEDFATYYCQVYSGYPLTFGGGTKVEIK
notes: heavy chain of emibetuzumab, IgG4; disclosed in WO 2010/059654; kappa light chain of emibetuzumab; IgG4; also called emibetuzumab analog; source: 293F cells, transiently co-transfected, purified from the supernatant (Protein A); copies: 2 + 2
In general, Kd refers to the equilibrium constant for the complex coming apart. B1: the Kd was 0.65 nM. This counts as sub-nanomolar.
